± gives the uncertainty stated by the source.
B1: Far upstream element-binding protein 1, residues 184 to 257; numbered along this chain, Q96AE4 (parent)
chain: GNAVQEIMIPASKAGLVIGKGGETIKQLQERAGVKMVMIQDGPQNTGADKPLRITGDPYKVQQAKEMVLELIRD

Variants of: B1
Assay: abundance fitness (aPCA) (normalised: wild type 0, dead -1); higher = more abundant; growth selection in yeast, the domain comes from the species named
Conditions: Homo sapiens

Variant	abundance fitness
K20A	0.02 ± 0.031
K20D	0.049 ± 0.043
K20V	-0.031 ± 0.03
K20N	-0.016 ± 0.049
K20W	-0.166 ± 0.039
K20H	-0.045 ± 0.044
G42L	-0.158 ± 0.032
G42C	-0.037 ± 0.04
G42H	-0.082 ± 0.048
G42N	-0.059 ± 0.054
G42F	-0.078 ± 0.056
G42R	-0.022 ± 0.026
M67Y	-0.088 ± 0.046
M67W	-0.124 ± 0.033
M67A	-0.03 ± 0.031
M67N	-0.073 ± 0.051
M67E	-0.082 ± 0.035
M67L	-0.053 ± 0.029
M67T	-0.116 ± 0.035
E23D	-0.037 ± 0.044
E23C	-0.011 ± 0.043
E23W	-0.087 ± 0.032
E23H	0.072 ± 0.049
E23M	-0.041 ± 0.038

Variant	abundance fitness
T46G	-0.024 ± 0.028
T46I	-0.062 ± 0.046
T46V	-0.004 ± 0.032
K50W	-0.058 ± 0.032
K50P	-0.202 ± 0.038
K50G	-0.201 ± 0.027
K50D	-0.525 ± 0.052
K50L	0.019 ± 0.03
E6Q	0.024 ± 0.038
E6D	-0.1 ± 0.043
E6T	-0.014 ± 0.035
E6H	-0.086 ± 0.045
E6Y	-0.232 ± 0.048
E6A	-0.12 ± 0.031
E6G	-0.358 ± 0.028
I54Y	-1.19 ± 0.17
I54E	-0.883 ± 0.053
I54F	-0.175 ± 0.058
A32F	0.054 ± 0.046
A32K	-0.171 ± 0.046
A32P	-0.706 ± 0.046
A32Y	-0.016 ± 0.051
A32H	0.031 ± 0.052
A32S	-0.013 ± 0.032

Variant	abundance fitness
A32E	-0.201 ± 0.038
A32L	-0.017 ± 0.031
A32N	0.029 ± 0.051
A32G	-0.075 ± 0.03
K60L	-0.065 ± 0.028
K60T	-0.278 ± 0.036
K60N	0.029 ± 0.047
K60A	-0.036 ± 0.031
K13L	-0.114 ± 0.03
K13R	-0.187 ± 0.028
L28R	-0.78 ± 0.036
L28Q	-0.612 ± 0.055
L28G	-0.825 ± 0.035
L28W	-0.284 ± 0.035
L28M	0.026 ± 0.038
R73A	0.111 ± 0.032
R73P	-0.208 ± 0.039
R73D	0.092 ± 0.047
Y59S	0.006 ± 0.029
Y59W	0.021 ± 0.032
Y59G	0.029 ± 0.026
Y59A	0.011 ± 0.029
Y59F	-0.003 ± 0.05
E30G	-0.122 ± 0.028

Variant	abundance fitness
E30H	-0.016 ± 0.048
G15R	-0.041 ± 0.027
G15A	-0.126 ± 0.031
G15L	-0.026 ± 0.031
G15Y	-0.035 ± 0.048
G15S	-0.04 ± 0.03
G15W	-0.005 ± 0.033
G15E	0.04 ± 0.036
G15M	0.042 ± 0.039
N45R	-0.022 ± 0.029
N45Y	-0.091 ± 0.044
N45V	-0.057 ± 0.033
V37H	-0.178 ± 0.058
V37A	-0.054 ± 0.032
V37I	-0.049 ± 0.048
V37M	-0.07 ± 0.042
E66I	-0.224 ± 0.048
E66A	-0.091 ± 0.032
E66V	-0.072 ± 0.03
I7E	-0.646 ± 0.041
I7A	-0.674 ± 0.041
I7R	-0.861 ± 0.035
I7N	-1.09 ± 0.1
L52D	-0.702 ± 0.07

Variant	abundance fitness
L52M	-0.047 ± 0.037
L52G	-0.886 ± 0.037
E70N	-0.127 ± 0.045
E70Q	-0.072 ± 0.038
E70R	-0.063 ± 0.026
E70I	-0.432 ± 0.058
E70L	-0.209 ± 0.03
E70C	-0.105 ± 0.039
E70K	0.002 ± 0.036
E70T	-0.056 ± 0.037
A48N	-0.086 ± 0.054
A48S	-0.035 ± 0.031
A48W	-0.124 ± 0.034
P58Q	-0.079 ± 0.046
P58K	-0.016 ± 0.041
P58V	-0.031 ± 0.032
A14V	-0.017 ± 0.035
A14F	-0.022 ± 0.051
A14G	-0.193 ± 0.032
A14Y	-0.039 ± 0.052
R31M	-0.096 ± 0.039
R31A	-0.036 ± 0.032
R31T	-0.042 ± 0.035
R31H	0.032 ± 0.054

Variant	abundance fitness
R31W	-0.221 ± 0.037
R31C	-0.084 ± 0.044
D49Y	-0.015 ± 0.052
D49P	-0.01 ± 0.038
D49C	-0.057 ± 0.048
D49H	-0.012 ± 0.048
S12M	-0.071 ± 0.04
S12T	0.001 ± 0.036
S12N	0 ± 0.045
S12H	-0.018 ± 0.054
S12G	0.002 ± 0.027
S12W	-0.123 ± 0.034
S12P	-0.008 ± 0.038
G19F	-0.519 ± 0.069
G19M	-0.551 ± 0.053
G19T	-0.371 ± 0.039
G19S	-0.366 ± 0.034
I9N	-0.785 ± 0.065
I9M	-0.312 ± 0.039
I9T	-0.749 ± 0.045
I9H	-0.905 ± 0.088
I9Q	-0.768 ± 0.055
I9Y	-0.891 ± 0.077
G21R	0.003 ± 0.026

Variant	abundance fitness
G21D	-0.024 ± 0.045
G21P	-0.493 ± 0.035
G47V	-0.054 ± 0.032
P43K	0.064 ± 0.048
P43F	-0.079 ± 0.054
P43E	-0.01 ± 0.04
P43M	-0.016 ± 0.044
P43I	-0.011 ± 0.067
P43Y	-0.003 ± 0.054
P43L	-0.053 ± 0.036
P43S	0.04 ± 0.038
G33M	-0.137 ± 0.041
G33A	-0.171 ± 0.032
G33L	-0.354 ± 0.032
G33W	-0.807 ± 0.046
A3F	0.165 ± 0.053
A3Q	0.133 ± 0.038
A3G	-0.059 ± 0.027
A3V	0.011 ± 0.032
V34W	-1.35 ± 0.086
V34M	-0.808 ± 0.059
V17H	-0.589 ± 0.063
V17R	-0.687 ± 0.033

Source: the Human Domainome abundance scans (Beltran et al. 2025)
